The term stoichiometry N denotes the number of molecules, sites or subunits per partner or assembly.

The values below come from article PMC4919432.

The target of experiment [1] is Mec1·Ddc2 complex (yeast (budding yeast)) (UniProt P38111). Briefly: negative stain electron microscopy, single-particle reconstruction; 70 nM Mec1·Ddc2 in 30 mM HEPES pH 7.4, 200 mM NaCl, 5% glycerol, 0.5 mM EDTA, 1 mM DTT; 2% uranyl acetate; C2 symmetry applied; 22.5 Å.
The target is the same in experiment [2]. Briefly: SEC; Mec1·Ddc2 on Superose 6 HR 10/30, 0.3 ml/min; 50 mM HEPES-KOH pH 7.4, 200 mM KCl, 10% glycerol, 0.1% Tween 20, 0.01% Nonidet P-40, 1 mM EDTA, 1 mM EGTA, 2 mM DTT; size against Bio-Rad gel filtration standards; peak fractions on SDS-PAGE.
The target in experiment [3] is Tel1 (yeast (budding yeast)) (UniProt P38110). The experiment in a line: SEC; Tel1 on Superose 6 Increase 5/150 GL, 0.1 ml/min; 50 mM HEPES-KOH pH 7.4, 200 mM KCl, 10% glycerol, 0.1% Tween 20, 0.02% C12E10, 1 mM EDTA, 3 mM DTT; size against Bio-Rad gel filtration standards. (In general: Size exclusion chromatography separates by hydrodynamic size, large species first.)

Experiment [4] has the same target. The experiment in a line: cryo-EM structure; 20 nM Tel1 in 50 mM HEPES-KOH pH 7.4, 210 mM KCl, 1% glycerol, 0.02% Tween 20, 0.002% Nonidet P-40, 1 mM EDTA, 0.5 mM EGTA, 1 mM DTT, 0.5 mM MgCl2; holey carbon grids with a thin carbon layer; 19.2 Å.
The target is the same in experiment [5]. The experiment in a line: negative stain electron microscopy, single-particle reconstruction; 20 nM Tel1 in 50 mM HEPES pH 7.4, 150 mM NaCl, 5% glycerol, 1 mM EDTA, 1 mM DTT; 2% uranyl acetate; C2 symmetry applied; 21 Å (FSC 0.5).

In experiment [1], “Mec1·Ddc2 complex, P38111 1-2368; Q04377 1-747” displayed a percent of particles of the size of the dimer of 81% and a stoichiometry N of 2. In experiment [2], this substance registered a stoichiometry N of 2.
In the case of Tel1, P38110 1-2787, the stoichiometry N in experiment [3], in experiment [4] and in experiment [5] was 2 throughout.
